Experimental data reported in article PMC5512576.

Target: BF520 Env 637K (HIV-1)

## PGT151 (antibody)
  maximum percent neutralization, TZM-bl pseudovirus neutralization by PGT151: 59%
